Data reported in patent US20240368239A1, “Novel bispecific protein and use thereof” (SL METAGEN, priority 2020, published 2024).

Columns and labels:
[1] = target: human GLP-2 receptor (human) (UniProt O95838); assay: cell-based or functional assay
GLP-1 receptor = assay: cell-based or functional assay

Sequence of human GLP-2 receptor (human) (O95838 whole entry): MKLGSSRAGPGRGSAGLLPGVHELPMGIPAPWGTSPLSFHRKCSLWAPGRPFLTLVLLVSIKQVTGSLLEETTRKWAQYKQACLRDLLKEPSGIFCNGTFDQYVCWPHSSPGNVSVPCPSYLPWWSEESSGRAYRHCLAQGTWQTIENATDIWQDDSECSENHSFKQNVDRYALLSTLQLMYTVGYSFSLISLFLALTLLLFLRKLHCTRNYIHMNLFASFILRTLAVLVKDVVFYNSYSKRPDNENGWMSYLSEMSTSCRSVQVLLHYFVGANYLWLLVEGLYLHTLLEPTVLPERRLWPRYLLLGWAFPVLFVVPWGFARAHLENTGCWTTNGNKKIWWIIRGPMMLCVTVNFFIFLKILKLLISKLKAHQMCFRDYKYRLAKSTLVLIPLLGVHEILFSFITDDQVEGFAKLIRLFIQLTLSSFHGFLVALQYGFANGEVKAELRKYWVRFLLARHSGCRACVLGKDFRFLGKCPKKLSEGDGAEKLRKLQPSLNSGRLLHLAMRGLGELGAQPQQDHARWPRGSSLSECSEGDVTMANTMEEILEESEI

| EC50 (nM), cAMP-gated CNG channel membrane potential dye fluorescence (Ft/F0) in Human GLP2R ACTOne cells [1] [nM] | vs. GLP-2 relative activity (%) [1] [%] | EC50 (pM), cAMP luciferase reporter in GLP1R cAMP/luc cells (GLP-1 receptor) [pM] | vs. GLP-1 relative activity (%) (GLP-1 receptor) | Substance |
| --- | --- | --- | --- | --- |
| 0.58 | 100 | – | – | native GLP-2 peptide (from UniProt P01275 146-178) |
| – | – | 26 | 100 | native GLP-1 peptide (from UniProt P01275 98-127) |
